Details in all cases: both partners purified
One test concerns the target T1, CD22_(20–687)F N231Q (human, UniProt P20273, N231Q, N-linked glycans with mature carbohydrates (HEK293F); glycosylation site N231 knocked out).
T1 construct: also called CD22 N231Q mutant; source: HEK293F, transiently transfected, secreted, purified (Ni-NTA, Superdex 200); not shown: His6, C-terminal, kept
In words: BLI; Octet RED96; CD22_(20–687) forms loaded on Ni-NTA biosensors; Fab in solution 500 to 62.5 nM; 1x PBS pH 7.4, 0.002% Tween, 0.01% BSA; 1:1 fit; triplicate.

Another test deals with T2, CD22_(20–687)S (human, UniProt P20273, N-linked glycans of high mannose type (HEK293S)).
T2 construct: differs in the glycoform; also called full-length CD22 ECD made in HEK293S (HEK293 Gnt I−/−); source: HEK293 Gnt I−/− (HEK293S), transiently transfected, secreted, purified (Ni-NTA, Superdex 200); not shown: His6, C-terminal, kept
Described as above.

A further test concerns the target T3, CD22_(20–687) (human, UniProt P20273, N-linked glycans; glycoform not stated).
T3 construct: also called full-length CD22 ECD; not shown: His6, C-terminal, kept
In words: negative-stain electron microscopy; CD22_(20–687) in complex with epratuzumab Fab, 2% uranyl formate stain; 2D class averages and ab initio 3D envelope.

The values below come from paper PMC5624926 (Nature Communications, 2017).

B1: epratuzumab Fab (Fab, V domains shown)
VH: QVQLVQSGAEVKKPGSSVKVSCKASGYTFTSYWLHWVRQAPGQGLEWIGYINPRNDYTEYNQNFKDKATITADESTNTAYMELSSLRSEDTAFYFCARRDITTFYWGQGTTVTVSS
VL: DIQLTQSPSSLSASVGDRVTMSCKSSQSVLYSANHKNYLAWYQQKPGKAPKLLIYWASTRESGVPSRFSGSGSGTDFTLTISSLQPEDIATYYCHQYLSSWTFGGGTKLEIK
notes: heavy chain of the epratuzumab Fab, gene synthesized by GeneArt; PDB 5VL3, complex with CD22; light chain of the epratuzumab Fab, gene synthesized by GeneArt; Therapeutic anti-CD22 antibody, used as Fab; purified on KappaSelect, so the light chain should be kappa (surmised); source: HEK293F, heavy and light chain co-transfected, purified (KappaSelect, MonoS, Superdex 200)
In the case of B1, in the test with CD22_(20–687)F N231Q, the “fold improvement in affinity against WT CD22” value was found to be 6 fold. Besides, in the test with CD22_(20–687)F N231Q, the “fold increase in on-rate against WT CD22” value came out at 25 fold. For the same molecule, the binding result in the test with CD22_(20–687)S and in the test with CD22_(20–687) was “binds” in each case.
